Substitutions are numbered along the chain they refer to.
What was measured:
[1] = target: T1, TGFβ1 (UniProt P01137 279-390); assay: SPR (Biacore)
T1 construct: also called TGFb1

[2] = target: T2, TGFβ3 (UniProt P10600 301-412); assay: SPR (Biacore)
T2 construct: also called TGFb3
T2 sequence (looked up): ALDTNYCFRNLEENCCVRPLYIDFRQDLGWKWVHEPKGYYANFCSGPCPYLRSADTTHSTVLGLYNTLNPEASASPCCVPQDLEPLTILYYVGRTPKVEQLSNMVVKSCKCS

[3] = target: T3, Keap1 (Kelch 1-6 domains, AA 314-611) (Homo sapiens (Human), UniProt Q14145 321-611); assay: Biacore competition assay (FIG. 33)
T3 construct: Kelch domain expressed in E. coli with an N-terminal His tag and TEV site; the same preparation is described for SPR; also called Kelch-like ECH-associated protein 1; Kelch domain of Keap1
Description: (§1) Surface plasmon resonance (SPR) experiments were carried out on a Biacore 3000 system (GE Healthcare) using reagents from the same manufacturer. […] The latter was immobilised to the activated carboxymethyl dextran surface via amine coupling as follows: a fresh mixture of 50 mM N-hydroxysuccimide and 200 mM 1-ethyl-3-(3-dimethylaminopropyl)-carbodiimide was injected for 5 minutes at a flow rate of 10 μl/min, followed by 50 μg/ml anti-human F(ab′)₂ in 10 mM acetate pH 5.0 buffer for 5 min at the same flow rate. Finally the surface was deactivated with a 10 minute pulse of 1 M ethanolamine.HCl pH 8.5. […] Initial binding of Keap1 to expressed Fabs was assessed by injecting 50 μl supernatant, diluted 1 in 5 in running buffer, over the reference and anti-F(ab′)₂ flow cells at a flow rate of 10 μl/min, followed by a 150 μl injection of 0, 500 or 5000 nM Keap1 in running buffer at a flow rate of 30 μl/min. […] Association and dissociation kinetics of Keap1 binding to captured Fabs were determined by the same protocol over at least 8 values of the following concentrations: 75, 100, 150, 250, 350, 500, 750, 1000, 1500, 2500, 3500 and 5000 nM. Zero Keap1 controls were interspersed between the former cycles in order to correct for baseline drift and sham transfected supernatant was assessed at each Keap1 concentration in order to determine and correct for non-specific binding of Keap1.

[4] = target: T3, Keap1 (Kelch 1-6 domains, AA 314-611); assay: Biacore competition assay, % inhibition against [Ab] M, fitted with log concentration vs normalized response/variable slope; neither the sheet nor the text names the surface-bound partner
Description: as §1

[5] = target: T1, TGFβ1; assay: cell-based or functional assay
[6] = target: T4, TGFβ2 (UniProt P61812 303-414); assay: cell-based or functional assay
T4 sequence (looked up): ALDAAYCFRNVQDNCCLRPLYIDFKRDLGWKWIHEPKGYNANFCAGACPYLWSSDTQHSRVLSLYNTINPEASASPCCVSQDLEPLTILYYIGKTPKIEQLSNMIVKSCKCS

[7] = target: T2, TGFβ3; assay: cell-based or functional assay
[8] = target: T1, TGFβ1; assay: SPR (Biacore), Fab immobilized on the chip
[9] = target: T2, TGFβ3; assay: SPR (Biacore), Fab immobilized on the chip
[10] = target: T3, Keap1 (Kelch 1-6 domains, AA 314-611); assay: SPR, captured Fab, Keap1 analyte
Description: Surface plasmon resonance (SPR) experiments were carried out on a Biacore 3000 system (GE Healthcare) and detailed experimental details are given below. Briefly, supernatant containing expressed Fab (or sham transfected supernatant control) was injected over immobilized anti-human F(ab′)₂ polyclonal on a CM5 chip. A second injection of a Keap1 titration or a zero analyte control allowed association and dissociation kinetics to be monitored. Chip regeneration completed each sensorgram cycle. Sensorgrams were corrected for baseline drift, caused by slow dissociation of captured Fab, by subtraction of an adjacent zero analyte control cycle. […] Specificity of Fab binding to Keap1 was assessed by the same protocol by titration of an Nrf2 peptide analogue against a constant concentration of Keap1.
Surface plasmon resonance (SPR) experiments were carried out on a Biacore 3000 system (GE Healthcare) using reagents from the same manufacturer. […] Initial binding of Keap1 to expressed Fabs was assessed by injecting 50 μl supernatant, diluted 1 in 5 in running buffer, over the reference and anti-F(ab′)₂ flow cells at a flow rate of 10 μl/min, followed by a 150 μl injection of 0, 500 or 5000 nM Keap1 in running buffer at a flow rate of 30 μl/min.

T1 sequence (P01137 279-390 limits assumed): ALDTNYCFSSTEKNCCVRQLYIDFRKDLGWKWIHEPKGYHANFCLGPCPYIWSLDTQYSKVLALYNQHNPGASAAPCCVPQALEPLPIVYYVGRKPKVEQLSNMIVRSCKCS
T3 sequence (Q14145 other isoform, or with tags, fused parts or gaps limits assumed): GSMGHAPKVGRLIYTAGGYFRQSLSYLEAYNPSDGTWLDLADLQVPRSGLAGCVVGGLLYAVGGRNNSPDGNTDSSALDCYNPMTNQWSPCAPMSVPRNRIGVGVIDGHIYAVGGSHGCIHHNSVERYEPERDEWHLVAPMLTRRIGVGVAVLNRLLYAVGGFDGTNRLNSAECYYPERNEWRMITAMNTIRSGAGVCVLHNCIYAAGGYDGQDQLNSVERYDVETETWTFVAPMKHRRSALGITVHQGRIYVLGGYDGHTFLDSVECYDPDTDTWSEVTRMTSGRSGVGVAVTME

B1: Fab design 186 (Fab, V domains shown)
VH: EVQLVQSGAEVKKPGESLKISCKGSGYSFTAYWISWVRQMPGKGLEWMGRIIPSVSITNYSPSFQGHVTISADKAISTAYLQWSSLKASDTAMYYCARLLMQGAMLTFDSWGQGTLVT
VL: DIQMTQSPSSLSASVGDRVTITCRASQSIGLALAWYQQKPGKAPKLLIYAASSLQSGVPSRFSGSGSGTDFTLTISSLQPEDFATYYCQQGNTLSYTFGQGTKVEIKR
notes: Fab; Scaffold 3NAC
**Q.** What does the source list for B1?
**A.** binding result [1]: no binding; binding result [2]: no binding

B2: LS146-scFv (scFv)
scFv: EVQLVESGGGLVQPGGSLRLSCAASGFAISASSIHWVRQAPGKCLEWVASIDPETGETLYAKSVAGRFTISADTSKNTAYLQMNSLRAEDTAVYYCARAYAGDGVYYADVWGQGTLVTVSSGGGGSGGGGSGGGGSGGGGSDIQMTQSPSSLSASVGDRVTITCRASQSVSSAVAWYQQKPGKAPKLLIYSASSLYSGVPSRFSGSRSGTDFTLTISSLQPEDFATYYCQQSYSFPSTFGCGTKVEIKRTENLYFQ
notes: VH-(Gly4Ser)4-VL followed by a TEV site and His10 tag; also called LS146 formatted as a single chain Fv; scFv-LS146
**Q.** With B2 as the binder, how does the “fold lower potency than its Fab form (LS146 Fab)” value [3] read?
**A.** The value was 3 fold.

**Q.** And the IC50 [4]?
**A.** Its IC50 is 79 nM.

B3: Fab184 (Fab, V domains shown)
VH: QVQLQQSGPELVRPGVSVKISCKGSGYTFIAEMLHWVKQSHAESLEWIGLIIPAVGITYYNQKFKDKATMTVDIASSTAYLELARLTSEDSAIYYCARSWAEGLFFDYWGQGTLVT
VL: DIVMTQTPKFLLVSAGDKVTITCKASQSVSNALTWYQQKPGQSPKLLIYYASNRYTGVPDRFTGSGYGTDFTFTISTVQAEDLAVYFCQQDYGAPPTFGGGTKVEIKR
notes: Fab; Scaffold 3MXW; also called designed Fab
**Q.** How did the “TGFβ1 IC50 in the reporter gene assay (n = 2)” value [5] turn out when B3 was run?
**A.** The value was 52.8 nM.

**Q.** What about the “TGFβ2 IC50 in the reporter gene assay (n = 2)” value [6] of the same binder?
**A.** The value was 36.8 nM.

**Q.** And the “TGFβ3 IC50 in the reporter gene assay (n = 2)” value [7]?
**A.** Its value is 10.6 nM.

**Q.** And the Kd [8]?
**A.** The Kd was 106 nM.

**Q.** What about the Kd [9] of the same binder?
**A.** Its Kd is 32.9 nM.

B4: G56 Fab (Fab, V domains shown)
VH: EVQLVESGGGLIRPGGSLRLSCKGSGFIFENFGFGWVRQGPGKGLEWVSGTNWNGGDSRYGDSVKGRFTISRDNSNNFVYLQMNSLRPEDTAIYYCARGTDYTIDETGERAQGSGTFWYFDVWGRGTLVTVSS
VL: EIVLTQSPATLSVSPGERATLSCRASQNVHPRYFAWYQQKRGQSPRLLIHSGSTRAAGIADRFSGGGSGMHFTLTITRVEPEDFAVYFCQQYGGSPYTFGQGTRVELR
notes: Scaffold 3U4B
**Q.** With B4 as the binder, how does the “Fraction of Fab binding sites occupied @ 500 nM Keap1” value [10] read?
**A.** Its value is 0.023 fraction.

B5: G56.1 Fab (Fab, V domains shown)
VH: B4 VH with R59Q
VL: B4 VL with Q27R
notes: Scaffold 3U4B
**Q.** Which “Fraction of Fab binding sites occupied @ 500 nM Keap1” value [10] does the source give for B5 here?
**A.** Its value is 0.027 fraction.
